The results in this text go back to publication PMC10127594.

The series concerns the target T1, Gac (Borrelia burgdorferi sensu stricto B31) (UniProt O51396).
T1 sequence: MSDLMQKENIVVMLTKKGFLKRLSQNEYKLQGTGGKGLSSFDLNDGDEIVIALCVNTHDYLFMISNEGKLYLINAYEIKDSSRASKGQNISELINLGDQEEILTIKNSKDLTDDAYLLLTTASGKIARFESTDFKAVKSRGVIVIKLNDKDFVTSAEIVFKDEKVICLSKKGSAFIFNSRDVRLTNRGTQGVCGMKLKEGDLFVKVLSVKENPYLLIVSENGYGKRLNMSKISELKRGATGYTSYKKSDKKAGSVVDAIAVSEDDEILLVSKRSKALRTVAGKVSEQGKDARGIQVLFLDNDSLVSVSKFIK
As to the kind of experiment: competition. The following applies: EMSA: 50 mM Tris-HCl (pH not stated), 25 mM KCl, 10% glycerol, 0.01% Tween 20, 100 nM DTT, 1 mM PMSF; 15 min, room temperature; 10 nM probe, 25 nM Gac. In general terms: In EMSA bound probe runs differently from free probe, usually more slowly.

Consider “AACAGGCAAAAGGATTTGCCAAAGTCAGAAATT (double strand) [flaB competitor]”, for which the binding signal (fold reduction) was under 1.3.
The result for B31 ospC operator/promoter reads 2.6.
Regarding “GTATTAAGTTATATTAATATAAAAGGAGAATATATT (double strand) [ospAB competitor]”, the binding signal (fold reduction) is under 1.3.
As for Ip89 ospC operator/promoter, the binding signal (fold reduction) turned out to be 2.
On to empty pCR2.1 amplicon, for which the binding signal (fold reduction) is under 1.3.
